The results in this text go back to patent US20250206820A1.

Positions count from the first letter of the chain named.

To fix the notation:
B1: 48A6 Fab coupled with CD3 scFv 2B2 (bispecific antibody, part only; not given: CD3 scFv 2B2, V domains shown, part only)
VH: EVQLVESGGDLMKPGGSLKLSCAASGFTFSSYGMSWVRQTPDKRLEWVATISSGGTYTFYPDSVKGRFTISRDNAKNTLYLQMSSLKSEDTAMYYCARRGWLLHYYAMDYWGQGTSVTVSS
VL: NIVLTQSPASLAVSLGQRATISCRPSESVDSFGNSFMHWFQQKPGQPPKLLIYLSSKLESGVPARFSGSGSRTDFTLTIDPVEADDAATYYCQQHNEDPFTFGSGTKLEIK
B2: 48A6 Fab coupled with CD3 scFv 1G4 (bispecific antibody, part only; not given: CD3 scFv 1G4, V domains shown, part only)
VH: B1 VH
VL: B1 VL
B3: 16C5 Fab coupled with CD3 scFv 1G4 (bispecific antibody, part only; not given: CD3 scFv 1G4, V domains shown, part only)
VH: EVQLQQSGPELVKPGASVKISCKASGYTFTDYNMDWVKQSHGKSLEWIGYIYPSNGGTGYNQKFKSKATLTVDKSSNTAYMELHSLTSEDSAVYYCARVPYYDYLYYYAMDYWGQGTSVTVSS
VL: QIVLSQSPAILSASPGEKVTMACRASSSVSFMHWYQQKPGSSPQPWIYATSNLASGVPARFSGSGSGTSYSLTISRVEAEDAATYYCQQWSTNPYMYTFGGGTKLEIK
B4: 12A12 Fab coupled with CD3 scFv 2B2 (bispecific antibody, part only; not given: CD3 scFv 2B2, V domains shown, part only)
VH: B3 VH with S54N, K65N, N77S, R98S, V99S, L105V, Y106G, Y107S
VL: QIVLTQSPAIMSASLGERVTMTCTASSSVSSSYLHWYQQKPGSSPKLWIYSTSNLASGVPARFSGSGSGTSYSLTISSMEAEDAATYYCHQYHRSPRTFGGGTKLEIK
B5: 12A12 Fab coupled with CD3 scFv 1G4 (bispecific antibody, part only; not given: CD3 scFv 1G4, V domains shown, part only)
VH: B3 VH with S54N, K65N, N77S, R98S, V99S, L105V, Y106G, Y107S
VL: B4 VL
B6: 16C5 Fab coupled with CD3 scFv 2B2 (bispecific antibody, part only; not given: CD3 scFv 2B2, V domains shown, part only)
VH: B3 VH
VL: B3 VL
B7: 53F10 Fab coupled with CD3 scFv 2B2 (bispecific antibody, part only; not given: CD3 scFv 2B2, V domains shown, part only)
VH: EVQVVESGGGLVKPGGSLKLSCAASGFTFSDYGMHWVRQAPEKGLEWVAYISTGIITVYYADTVKGRFTMSRDNAKNTLFLQMTSLRSEDTAIYYCARADGRGAMDYWGQGTSVIVSS
VL: DIQMTQTTSSLSASLGDRVTISCRASQDISNFLNWYQQKPDGTVTLLIYYTSRLHSGVPSRFSGSGSGTDYSLTISNLEQEDFATYFCQQGNTLPWTFGGGTKLEIK
B8: 53F10 Fab coupled with CD3 scFv 1G4 (bispecific antibody, part only; not given: CD3 scFv 1G4, V domains shown, part only)
VH: B7 VH
VL: B7 VL
B9: 3A3 Fab coupled with CD3 scFv 2B2 (bispecific antibody, part only; not given: CD3 scFv 2B2, V domains shown, part only)
VH: QVQLKESGPGLVAPSQSLSITCTVSGFSLTSYGVHWVRQPPGKGLEWLGVIWPGGTINYNSALMSRLSISKDNSKSQVFLKLNSLQTDDTAMYYCASDKYDGGWFAYWGQGTLVTVSA
VL: DIVMTQSQKFMSTSVGDRVSITCKASQNVRTAVAWYQQKPGQSPEALIYLASNRHTGVPDRFTGSGSGTDFSLSISNVQSEDLADYFCLQHLNYPLTFGSGTKLEIK
B10: 3A3 Fab coupled with CD3 scFv 1G4 (bispecific antibody, part only; not given: CD3 scFv 1G4, V domains shown, part only)
VH: B9 VH
VL: B9 VL
B11: Hz45G10 Fab coupled with CD3 scFv 1G4 (bispecific antibody, part only; not given: CD3 scFv 1G4, V domains shown, part only)
VH: EVQLVESGGGLVQPGGSLRLSCAASGFTFSDYGMHWVRQAPGKGLEWVAYIFSGSSTIYYADTVKGRFTISRDNAKNSLYLQMNSLRAEDTAVYYCARADGRGAMDYWGQGTLVTVSS
VL: DIQMTQSPSSLSASVGDRVTITCRASQDISKFLNWYQQKPGKAPKLLIYYTSRLHSGVPSRFSGSGSGTDFTFTISSLQPEDIATYFCQQGNTLPWTFGGGTKLEIK

In this experiment the target is ILT3 on target cells (MOLM13, OCI-AML-2, NALM-1, THP-1, MM1S, H929, U226B1 and other lines) (human) (UniProt Q8NHJ6). As to the kind of experiment: cell-based or functional assay.
Sequence of ILT3 on target cells (MOLM13, OCI-AML-2, NALM-1, THP-1, MM1S, H929, U226B1 and other lines) (human) (Q8NHJ6 22-448, one chain of several): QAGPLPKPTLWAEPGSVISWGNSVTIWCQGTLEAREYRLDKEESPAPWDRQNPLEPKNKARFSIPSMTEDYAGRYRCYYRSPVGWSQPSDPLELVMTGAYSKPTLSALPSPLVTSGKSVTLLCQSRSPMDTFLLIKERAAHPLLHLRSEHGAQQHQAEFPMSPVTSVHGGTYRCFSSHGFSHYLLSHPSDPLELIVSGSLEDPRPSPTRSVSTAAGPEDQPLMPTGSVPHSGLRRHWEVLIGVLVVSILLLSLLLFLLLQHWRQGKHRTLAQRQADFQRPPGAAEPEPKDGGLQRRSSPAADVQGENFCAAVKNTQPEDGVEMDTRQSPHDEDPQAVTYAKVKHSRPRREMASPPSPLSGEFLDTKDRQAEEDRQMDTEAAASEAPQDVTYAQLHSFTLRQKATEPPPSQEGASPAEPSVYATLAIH
The molecule B1 gave a TDCC, EC50 of 0.025 nM and a TNF-α, EC50 (nM), cytokine release in the TDCC co-culture of 2.51 nM. B2 showed a TDCC, EC50 of 0.5 nM.

B3: the TDCC, EC50 was 50.1 nM. In turn, B4 yielded a TDCC, EC50 of 3.16 nM and a TNF-α, EC50 (nM), cytokine release in the TDCC co-culture of 2510 nM. Molecule B5 displayed a TDCC, EC50 of 251 nM. As to B6, the TDCC, EC50 amounted to 3.16 nM and the TNF-α, EC50 (nM), cytokine release in the TDCC co-culture is 398 nM. On the same counts, the results for B7 are 0.013 nM and 2 nM.

Turning to B8, the TDCC, EC50 was 2 nM. Regarding B9, the TDCC, EC50 amounted to 0.4 nM and the TNF-α, EC50 (nM), cytokine release in the TDCC co-culture came to 79.4 nM.

As to B10, the TDCC, EC50 came to 50.1 nM. On the same count and under the same terms, the value for B11 was 1.26 nM.
